{
  "source": "paper PMC9009374",
  "biological_target": "Venus-tagged carboxy-tail segment of CaV1.2 (UniProt P15381)",
  "sequence (P15381 1525-2171)": "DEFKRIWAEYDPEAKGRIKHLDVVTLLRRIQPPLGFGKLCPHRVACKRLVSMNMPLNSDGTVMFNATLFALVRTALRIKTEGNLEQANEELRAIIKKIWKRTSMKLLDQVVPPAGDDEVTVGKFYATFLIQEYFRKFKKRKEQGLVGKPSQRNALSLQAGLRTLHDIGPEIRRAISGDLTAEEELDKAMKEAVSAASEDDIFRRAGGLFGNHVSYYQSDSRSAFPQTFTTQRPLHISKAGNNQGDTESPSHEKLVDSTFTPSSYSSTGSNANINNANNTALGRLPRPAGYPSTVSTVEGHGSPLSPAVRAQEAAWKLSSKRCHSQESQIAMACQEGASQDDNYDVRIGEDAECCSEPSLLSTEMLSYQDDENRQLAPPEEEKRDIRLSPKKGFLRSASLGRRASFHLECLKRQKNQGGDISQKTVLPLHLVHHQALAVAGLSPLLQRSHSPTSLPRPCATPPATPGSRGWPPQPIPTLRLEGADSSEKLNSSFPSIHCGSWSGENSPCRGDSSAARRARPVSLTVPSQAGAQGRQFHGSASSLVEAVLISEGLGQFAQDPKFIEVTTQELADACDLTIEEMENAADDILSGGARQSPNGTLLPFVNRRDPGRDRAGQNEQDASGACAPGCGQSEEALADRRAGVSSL",
  "experiment": "FRET or BRET",
  "data": [
    {"substance": "Cerulean-tagged calmodulin (CaM) (from UniProt P0DP23 1-149) (natural protein)", "values": [
      {"measurement": "stoichiometry N", "result": 1}
    ]}
  ]
}
